The text below walks through data of patent publication US20110144312A1 (Kyowa Kirin, published 2011).

Changes are numbered by the printed parent chain.

Experiment [1] addresses T1, mouse IL-10Rα on splenocytes (mouse, UniProt Q61727 17-575).
T1 construct: whole, on cells
T1 sequence (looked up): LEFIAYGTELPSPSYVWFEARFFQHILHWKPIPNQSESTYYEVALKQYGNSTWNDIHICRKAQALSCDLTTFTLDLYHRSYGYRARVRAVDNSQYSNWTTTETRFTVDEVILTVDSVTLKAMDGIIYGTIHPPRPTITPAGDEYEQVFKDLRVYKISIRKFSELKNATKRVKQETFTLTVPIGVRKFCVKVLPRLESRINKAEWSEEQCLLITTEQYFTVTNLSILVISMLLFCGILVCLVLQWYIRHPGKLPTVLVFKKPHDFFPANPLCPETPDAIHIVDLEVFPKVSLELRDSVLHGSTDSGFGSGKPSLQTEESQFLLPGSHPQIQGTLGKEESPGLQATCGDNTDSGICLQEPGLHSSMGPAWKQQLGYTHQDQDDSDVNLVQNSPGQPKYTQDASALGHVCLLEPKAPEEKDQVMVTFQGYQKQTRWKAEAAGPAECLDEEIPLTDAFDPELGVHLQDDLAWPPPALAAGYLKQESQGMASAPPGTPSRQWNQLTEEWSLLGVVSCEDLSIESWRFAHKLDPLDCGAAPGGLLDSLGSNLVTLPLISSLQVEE
Kind of experiment: flow cytometry on splenocytes. A general note: A flow cytometer gives signals particle by particle.

For experiment [2], the target named is T2, SNP variant L61V of human IL-10Rα extracellular domain fused to the Fc portion of human IgG1 (human).
T2 construct: The entry already holds the change and includes the signal peptide; also called L61I; L611
T2 sequence (chain, as listed by the source L61V L61V limits assumed): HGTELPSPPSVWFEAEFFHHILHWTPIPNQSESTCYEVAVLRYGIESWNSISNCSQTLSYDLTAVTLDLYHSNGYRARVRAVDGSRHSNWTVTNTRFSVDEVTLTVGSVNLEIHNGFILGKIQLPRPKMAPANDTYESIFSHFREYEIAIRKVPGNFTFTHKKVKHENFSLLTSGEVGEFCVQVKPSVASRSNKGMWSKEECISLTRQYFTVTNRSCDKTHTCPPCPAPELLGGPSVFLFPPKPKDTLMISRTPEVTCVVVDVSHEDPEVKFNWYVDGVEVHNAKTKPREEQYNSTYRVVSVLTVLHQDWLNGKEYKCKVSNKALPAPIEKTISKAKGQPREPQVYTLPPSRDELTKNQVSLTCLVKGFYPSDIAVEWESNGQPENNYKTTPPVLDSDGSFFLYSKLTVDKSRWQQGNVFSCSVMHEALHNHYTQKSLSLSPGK
Kind of experiment: ELISA with SNP variant Fc fusion.

For experiment [3], the target named is T3, SNP variant V113I of human IL-10Rα extracellular domain fused to the Fc portion of human IgG1 (human).
T3 construct: The entry already holds the change and includes the signal peptide; also called V1131
As to the kind of experiment: ELISA with SNP variant Fc fusion. On the technique in general: ELISA stands for enzyme-linked immunosorbent assay.
Target sequence in this assay (chain, as listed by the source V113I V113I limits assumed): as the sequence (chain, as listed by the source L61V L61V limits assumed) above, with V40L, V92I counted along it

Experiment [4] deals with T4, SNP variant S159G of human IL-10Rα extracellular domain fused to the Fc portion of human IgG1 (human).
T4 construct: The entry already holds the change and includes the signal peptide
As to the kind of experiment: ELISA with SNP variant Fc fusion.
Target sequence in this assay (chain, as listed by the source S159G S159G limits assumed): as the sequence (chain, as listed by the source L61V L61V limits assumed) above, with V40L, S138G counted along it

The target of experiment [5] is T5, SNP variant R212E of human IL-10Rα extracellular domain fused to the Fc portion of human IgG1 (human).
T5 construct: The entry already holds the change and includes the signal peptide
T5 sequence (chain, as listed by the source R212E R212E limits assumed): as the sequence (chain, as listed by the source L61V L61V limits assumed) above, with V40L, R191E counted along it
As to the kind of experiment: ELISA with SNP variant Fc fusion.

Experiment [6] has as its target T6, SNP variant V233M of human IL-10Rα extracellular domain fused to the Fc portion of human IgG1 (human).
T6 construct: The entry already holds the change and includes the signal peptide
As to the kind of experiment: ELISA with SNP variant Fc fusion.

Experiment [7] deals with T7, Biotin-SGSTLDLYHSNGYRARVRAVDG-NH2 (human, N-terminal biotin, C-terminal amide (-NH2)).
T7 peptide: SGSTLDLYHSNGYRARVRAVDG
Kind of experiment: ELISA, biotinylated peptide on Extravidin or Neutravidin plates. As for the experimental part: (§1) Multiple ELISA methods were also employed to detect binding of anti-IL-10Rα antibodies to IL-10Rα, derived peptides. The biotinylated IL-10Rα derived peptides (SEQ ID NO. 86-87) were diluted to 1 μg/ml in TBS/BSA/0.05% Tween 20 and added to Extravidin or Neutravidin pre-coated ELISA plates (Pierce) for 2 hours at room temperature. After washing three times with TBS/BSA/0.05% Tween 20. The purified anti-human IL-10Rα antibodies were diluted in TBS/BSA/0.05% Tween 20 and added to the wells. The plates were incubated for 1 hour at room temperature. The plates were washed 3 times with TBS/0.05% Tween 20 and peroxidase-conjugated goat anti-human IgG (Fcγ specific), anti-rat IgG, or anti-mouse IgG detection antibodies (Jackson Immunoresearch) were added. Following 1 hour incubation at room temperature, the plates were washed and the TMB (Sigma) substrate was added and incubated at room temperature for 5 to 10 minutes. The reaction was stopped with H₂SO₄ (LabChem) and the optical density was measured at 450 nm using a microplate reader. An OD reading above background wells with no primary antibody is indicative of antibody binding to the peptides. […] The antibodies only bound the positive control biotinylated recombinant human IL-10Rα:hFc protein. […] Antibody binding was detected with species-specific anti-IgG-HRP secondary antibodies. […]

In experiment [8] the target is T8, Biotin-SGSTYSIFSHFREYEIAIRKV-NH2 (human, N-terminal biotin, C-terminal amide (-NH2)).
T8 peptide: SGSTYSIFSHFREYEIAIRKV
The experiment is described as above. On the procedure:
as §1

Experiment [9] deals with T4, SNP variant S159G of human IL-10Rα …. Kind of experiment: ELISA, coated SNP variant Fc fusion S159G [D].
For experiment [10], the target named is T3, SNP variant V113I of human IL-10Rα …. As to the kind of experiment: ELISA, coated SNP variant Fc fusion V113I [C].

T6 sequence (chain, as listed by the source V233M V233M limits assumed): as the sequence (chain, as listed by the source L61V L61V limits assumed) above, with V40L, V212M counted along it

B1: 136C5 (antibody, V domains shown)
VH: EVQLVESGGGLVQPGGSLRLSCAASGFTFSSYSMNWVRQAPGKGLEWVSYISTGSSTIYYADSVKGRFTISRDNAKNSLYLQMNSLRDEDTAVYYCARENYYGSGSYEDYFDYWGQGTLVTVSS
VL: EIVLTQSPATLSLSPGERATLSCRASQSVSSYLAWYQQKPGQAPRLLIYDASNRATGIPARFSGSGSGTDFTLTISSLEPEDFAVYYCQQRSNWPIFTFGPGTKVDIK
notes: Hybridoma antibody, human IgG1, kappa light chain; also called human anti-human IL-10Rα monoclonal antibody 136C5; hybridoma deposit PTA-9131
Turning to B1, the binding result is “no binding” in experiment [1]; “binds” in [2]; “binds” in experiment [3]; “binds” in [4]; “binds” in experiment [5]; “binds” in experiment [6]. Also, the binding result in experiment [7] and in experiment [8] was “no binding (tested: 1 µg/ml peptide)” throughout.

B2: 136C8 (antibody, V domains shown)
VH: B1 VH with G54R
VL: B1 VL
notes: Hybridoma antibody, human IgG2, kappa light chain; also called human anti-human IL-10Rα monoclonal antibody 136C8; hybridoma deposit PTA-9132
Regarding B2, the figures for the binding result in experiment [1], in experiment [9] and in experiment [10] were “no binding”, “binds” and “binds”, respectively.
